Results on 23 molecules are retold here after US20200062863A1 (CSL BEHRING, published 2020).

Numbering of substitutions follows the chain as printed.

The labels stand for the following.
T1: human Factor XIIa-alpha (human, UniProt P00748 20-615)
T1 sequence: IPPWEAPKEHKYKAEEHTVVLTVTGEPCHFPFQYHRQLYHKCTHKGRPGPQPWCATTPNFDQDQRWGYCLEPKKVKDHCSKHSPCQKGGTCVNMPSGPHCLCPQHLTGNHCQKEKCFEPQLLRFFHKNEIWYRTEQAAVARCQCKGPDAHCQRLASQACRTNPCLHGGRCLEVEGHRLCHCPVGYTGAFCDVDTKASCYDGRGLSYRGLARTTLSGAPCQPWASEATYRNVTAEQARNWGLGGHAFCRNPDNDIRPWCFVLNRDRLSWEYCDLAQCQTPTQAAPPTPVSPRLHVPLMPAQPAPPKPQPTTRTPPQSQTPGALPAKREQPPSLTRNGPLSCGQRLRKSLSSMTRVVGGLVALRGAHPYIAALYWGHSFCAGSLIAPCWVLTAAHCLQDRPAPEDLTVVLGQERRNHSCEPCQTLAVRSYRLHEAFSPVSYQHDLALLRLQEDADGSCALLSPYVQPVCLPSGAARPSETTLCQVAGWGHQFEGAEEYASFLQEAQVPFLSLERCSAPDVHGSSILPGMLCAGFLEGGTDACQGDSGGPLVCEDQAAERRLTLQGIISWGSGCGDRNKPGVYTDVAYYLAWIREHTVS

T2: human Factor XIIa-beta (human, UniProt P00748 354-615, limits assumed)
T2 construct: Bought from Enzyme Research Laboratories; also called FXIIa beta; FXIIa-beta
T2 sequence: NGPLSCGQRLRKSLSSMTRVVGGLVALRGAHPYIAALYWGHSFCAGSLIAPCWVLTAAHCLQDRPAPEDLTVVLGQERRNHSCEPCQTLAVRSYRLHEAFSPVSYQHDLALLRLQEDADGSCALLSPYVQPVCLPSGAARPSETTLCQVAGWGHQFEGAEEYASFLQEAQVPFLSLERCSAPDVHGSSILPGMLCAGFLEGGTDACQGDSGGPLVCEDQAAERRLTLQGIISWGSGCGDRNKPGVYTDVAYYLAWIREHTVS

B1: VR110 (antibody, V domains shown)
VH: EVQLLESGGGLVQPGGSLRLSCAASGFTFSKYIMQWVRQAPGKGLEWVSGIDMPTKGTVYADSVKGRFTISRDNSKNTLYLQMNSLRAEDTAVYYCARALPRSGYLISPHYYYYALDVWGQGTTVTVSS
VL: QSELTQPPSASGTPGQRVTISCSGSSSNIGRNYVYWYQQVPGTAPKLLIYSNNQRPSGVPDRFSGSKSGTSASLVISGLRSEDEADYYCAAWDASLRGVFGGGTKLTVLG
B2: VR115 (antibody, V domains shown)
VH: B1 VH with M53I
VL: B1 VL
B3: VR112 (antibody, V domains shown)
VH: B1 VH with D52N, M53V, T55V, K56Q
VL: B1 VL
B4: VR119 (antibody, V domains shown)
VH: B1 VH with D52N, M53V, T55L, K56Y
VL: B1 VL
B5: VR63 (antibody, V domains shown)
VH: B1 VH with D52R, M53P, P54S, T55G, K56G, G57T
VL: B1 VL with A94N, S95Q, L96V, G98L, V99G
notes: Libraries were built on germline stop templates, so frameworks may differ
B6: VR62 (antibody, V domains shown)
VH: B1 VH with D52R, M53P, P54S, T55G, K56G, G57T
VL: QSVLTQPPSASGTPGQRVTISCSGSSSNIGRNYVYWYQQLPGTAPKLLIYSNNQRPSGVPDRFSGSKSGTSASLAISGLRSEDEADYYCAAWDQQVRLDFGGGTKLTVL
notes: as for B5
B7: VR148 (antibody, V domains shown)
VH: B1 VH with D52R, M53P, P54S, T55G, K56G, G57T, I107V, S108K, P109K, H110Q
VL: B1 VL
notes: as for B5
B8: VR58 (antibody, V domains shown)
VH: B1 VH with D52R, M53P, P54S, T55G, K56G, G57T
VL: B6 VL with Q94P, D99A
notes: as for B5
B9: VR159 (antibody, V domains shown)
VH: B1 VH with D52R, M53P, P54S, T55G, K56G, G57T, I107V, S108K, P109H, H110G
VL: B1 VL
notes: as for B5
B10: VR109 (antibody, V domains shown)
VH: B1 VH with D52N, M53P, P54A, K56N, G57T
VL: B1 VL
notes: as for B5
B11: VR46 (antibody, V domains shown)
VH: B1 VH with D52R, M53P, P54S, T55G, K56G, G57T
VL: B6 VL with A91S, D93E, Q94L, Q95P, V96L, L98G, D99V
notes: as for B5
B12: VR52 (antibody, V domains shown)
VH: B1 VH with D52R, M53P, P54S, T55G, K56G, G57T
VL: B6 VL with Q94E, Q95R, D99M
notes: as for B5
B13: VR160 (antibody, V domains shown)
VH: B1 VH with D52R, M53P, P54S, T55G, K56G, G57T, I107M, S108K, H110G
VL: B1 VL
notes: as for B5
B14: VR53 (antibody, V domains shown)
VH: B1 VH with D52R, M53P, P54S, T55G, K56G, G57T
VL: B6 VL with L98K, D99T
notes: as for B5
B15: VR108 (antibody, V domains shown)
VH: B1 VH with D52N, M53P, P54A, G57T
VL: B1 VL
notes: as for B5
B16: VR149 (antibody, V domains shown)
VH: B1 VH with D52R, M53P, P54S, T55G, K56G, G57T, I107M, S108K, P109K, H110N
VL: B1 VL
notes: as for B5
B17: VR103 (antibody, V domains shown)
VH: B1 VH with M53V, T55V, K56R
VL: B1 VL
notes: as for B5
B18: VR107 (antibody, V domains shown)
VH: B1 VH with D52N, M53P, P54A, K56R, G57T
VL: B1 VL
notes: as for B5
B19: VR101 (antibody, V domains shown)
VH: B1 VH with D52N, M53P, P54A, K56R, G57S
VL: B1 VL
notes: as for B5
B20: VR167 (antibody, V domains shown)
VH: B1 VH with D52R, M53P, P54S, T55G, K56G, G57T, I107M, S108K, P109T, H110G
VL: B1 VL
notes: as for B5
B21: VR14 (antibody, V domains shown)
VH: B1 VH with D52R, M53P, P54S, T55G, K56G, G57T
VL: B6 VL with S27G, N28M, I29V, G30E, R31Q, Q94A, Q95S, V96L, L98G, D99V
notes: as for B5
B22: VR99 (antibody, V domains shown)
VH: B1 VH with D52N, M53P, P54A, K56M, G57T
VL: B1 VL
notes: as for B5
B23: VR39 (antibody, V domains shown)
VH: B1 VH with D52R, M53P, P54S, T55G, K56G, G57T
VL: B6 VL with A91S, D93W, Q94N, Q95D, V96L, L98G, D99V
notes: as for B5

The term Kd denotes a measure of binding affinity in units of concentration. In general, koff refers to the rate constant with which the complex falls apart. Broadly, the kon is a measure of how fast the partners come together.

The first assay deals with T1, human Factor XIIa-alpha. Kind of assay: cell-based or functional assay.
Consider B1, for which the % Inhibition, ratio FXIIa-alpha:Antibody 1:0.1 amounted to 33.7%; the % Inhibition, ratio FXIIa-alpha:Antibody 1:0.2 turned out to be 66.9%; the % Inhibition, ratio FXIIa-alpha:Antibody 1:0.5 was 100%; the % Inhibition, ratio FXIIa-alpha:Antibody 1:1 was determined as 100%. The % Inhibition, ratio FXIIa-alpha:Antibody 1:2 came to 100%; the % Inhibition, ratio FXIIa-alpha:Antibody 1:5 turned out to be 100%; the % Inhibition, ratio FXIIa-alpha:Antibody 1:10 is 100%.

Regarding B2, the “% Inhibition, ratio FXIIa-alpha:Antibody 1:0.1” value is 39.4%; the “% Inhibition, ratio FXIIa-alpha:Antibody 1:0.2” value amounted to 72.8%; the “% Inhibition, ratio FXIIa-alpha:Antibody 1:0.5” value is 100%; the “% Inhibition, ratio FXIIa-alpha:Antibody 1:1” value was found to be 100%. Besides, the “% Inhibition, ratio FXIIa-alpha:Antibody 1:2” value was determined as 100%; the “% Inhibition, ratio FXIIa-alpha:Antibody 1:5” value is 100%; the “% Inhibition, ratio FXIIa-alpha:Antibody 1:10” value worked out at 100%.

As to B3, the “% Inhibition, ratio FXIIa-alpha:Antibody 1:0.1” value was found to be 39.9%; the “% Inhibition, ratio FXIIa-alpha:Antibody 1:0.2” value turned out to be 68.7%; the “% Inhibition, ratio FXIIa-alpha:Antibody 1:0.5” value stood at 99.7%; the “% Inhibition, ratio FXIIa-alpha:Antibody 1:1” value was found to be 100%. Besides, the “% Inhibition, ratio FXIIa-alpha:Antibody 1:2” value stood at 100%; the “% Inhibition, ratio FXIIa-alpha:Antibody 1:5” value was determined as 100%; the “% Inhibition, ratio FXIIa-alpha:Antibody 1:10” value was 100%.

The target in a further assay is T2, human Factor XIIa-beta. Briefly: SPR (Biacore), KD against parental 3F7. In general terms: Surface plasmon resonance follows binding to a sensor surface in real time, without labels.
On to B1, for which the Fold affinity improvement was 25 fold.

As to B2, the Fold affinity improvement came out at 57 fold.

Take B3: the Fold affinity improvement is 51 fold.

Turning to B4, the Fold affinity improvement was 24 fold.

The next assay concerns the target T2, human Factor XIIa-beta. Briefly: SPR (Biacore), purified IgG4 captured on anti-human IgG, FXIIa beta 0-40 nM, 1:1 fit, 25 C.
Take B1: the Kd came to 0.35 nM, the koff is 3.9e-05 s⁻¹ and the kon is 110000 M⁻¹ s⁻¹.

In the case of B2, the Kd is 0.15 nM, the koff turned out to be 2.5e-05 s⁻¹ and the on-rate constant (kon) is 170000 M⁻¹ s⁻¹.

The molecule B3 gave a Kd of 0.17 nM, an off-rate constant (koff) of 4.3e-05 s⁻¹ and a kon of 250000 M⁻¹ s⁻¹.

Molecule B4 came in with a dissociation constant (Kd) of 0.36 nM, a koff of 5.9e-05 s⁻¹ and a kon of 160000 M⁻¹ s⁻¹.

For the next assay, the target named is T2, human Factor XIIa-beta. Kind of assay: SPR (Biacore A100), unpurified IgG4 supernatant captured on anti-human IgG, single FXIIa beta concentration (100 nM), 37 C, 1:1 fit; estimated. Here is the method: Anti-human (Goat anti-human IgG (gamma) mouse adsorbed, Invitrogen, Cat No. H10500) was chemically immobilised on a CM-5 sensor surface using amine coupling chemistry. Culture supernatants were diluted 1/60 with running buffer before capture. Antibodies were captured for 180 seconds representing an average capture of 800 response units (RU). FXIIa beta was then injected at zero and 100 nM for 180 seconds, and dissociated for 180 seconds. All assays were conducted on a Biacore A100 instrument at 37 degrees Celsius and the data fitted to a 1:1 kinetic model.
For B5, the Kd was 8.3 nM.

Consider B6, for which the Kd was 5.81 nM.

As for B7, the Kd is 6.93 nM.

B8: the Kd is 5.33 nM.

For B9, the Kd is 6.93 nM.

On to B1, for which the Kd is 2.04 nM.

Consider B2, for which the Kd was 1.56 nM.

For B10, the Kd was 5.98 nM.

For the molecule B3, the Kd is 1.52 nM.

Take B11: the Kd is 6.67 nM.

Regarding B12, the Kd was 7.1 nM.

B13: the Kd was 7.13 nM.

Take B14: the Kd is 7.05 nM.

For B15, the Kd is 2.81 nM.

Take B16: the dissociation constant (Kd) was 5.12 nM.

B17: the dissociation constant (Kd) was 2.87 nM.

With B18, the Kd was 2.45 nM.

Consider B19, for which the dissociation constant Kd was 3.33 nM.

In the case of B4, the Kd is 1.31 nM.

B20: the Kd is 5.8 nM.

In the case of B21, the Kd was 6.22 nM.

With B22, the Kd is 9.19 nM.

Regarding B23, the Kd was 5.63 nM.
